The text below walks through data of US20060078880.

Data set [1] relates to C7.GCG (C7) none; finger-3 helix RSDERKR (SEQ 50) (synthetic). Briefly: EMSA. Particulars: CITED Segal 1999, exact target oligo not stated; cited from earlier work. In general terms: In EMSA bound probe runs differently from free probe, usually more slowly.
Data set [2] deals with C7.GAT C7 finger-3 helix RSDERKR replaced by TSGNLVR (SEQ 51) (synthetic). Briefly: EMSA. As to conditions: [none]; gel mobility shift; exact target oligo not stated.

Regarding “GCGTGGGCG (double strand) [C7 target, finger-2 subsite TGG]”, in data set [1], the Kd (in general, the free concentration of one partner at which half of the binding sites on the other are occupied at equilibrium, for simple one-to-one binding) is 0.0005 µM.

For “GATTGGGCG (double strand) [C7.GAT target, finger-2 subsite TGG]”, in data set [2], the Kd was found to be 0.4 µM.
